Test results published in patent publication US20150140013A1 (GENERAL HOSPITAL, published 2015).

Molecular target: T1, RAPTOR (UniProt Q8N122 1-1335)
T1 construct: Endogenous protein in lysates of human cancer cell lines
Assay: co-immunoprecipitation with anti-FAK from whole-cell lysates of HCT116 and MCF7 cells in mitosis, immunoblot with anti-RAPTOR
Description: The immunoprecipitates were washed and resolved by SDS-PAGE. For western blots: primary antibody: RICTOR, mTOR (Cell Signaling), Raptor, FAK, β1-integrin, TTC3 (AbCam).
Standard protocols were used for SDS-PAGE electrophoresis and the following primary antibodies: α-RICTOR, α-mTOR, Phospho-AKT-Ser473 (D9E; Cell Signaling Technology) and α-RAPTOR, α-FAK, α-β1-integrin, α-TTC3, Pan-AKT, and GAPDH (Abcam). For immunoprecipitation studies, cells were synchronized with 200 ng/mL of nocodazole for 12 hours and then released for 2 hours. Cells were rinsed with PBS, fixed with 0.37% formalde-hyde, and quenched with 0.25 mol/L glycine. Cell lysates were prepared in lysis buffer [1% Triton X-100, 150 mmol/L NaCl, 3 mmol/L MgCl, 40 mmol/L HEPES (pH 7.5), 50 mmol/L NaF, EDTA-free protease inhibitor and phosphatase inhibitor (Roche)] and centrifuged at 14,000×g for 10 minutes. Supernatant (250 μg) was incubated with the indicated antibodies [α-FAK (AbCam), α-RICTOR (Santa Cruz Biotechnology)], for 4 hours at 4° C. with rotation and then with 50 μL of a 50% slurry of protein G-sepharose (Roche) for 1 hour Immunoprecipitates were washed and resolved by SDS-PAGE electrophoresis.
To identify an upstream regulator that might activate mTORC2 signaling during asymmetric division, an immunoprecipitation approach was used to identify proteins that physically interact with the mTORC2 complex during mitosis. […]

T1 sequence (Q8N122 whole entry): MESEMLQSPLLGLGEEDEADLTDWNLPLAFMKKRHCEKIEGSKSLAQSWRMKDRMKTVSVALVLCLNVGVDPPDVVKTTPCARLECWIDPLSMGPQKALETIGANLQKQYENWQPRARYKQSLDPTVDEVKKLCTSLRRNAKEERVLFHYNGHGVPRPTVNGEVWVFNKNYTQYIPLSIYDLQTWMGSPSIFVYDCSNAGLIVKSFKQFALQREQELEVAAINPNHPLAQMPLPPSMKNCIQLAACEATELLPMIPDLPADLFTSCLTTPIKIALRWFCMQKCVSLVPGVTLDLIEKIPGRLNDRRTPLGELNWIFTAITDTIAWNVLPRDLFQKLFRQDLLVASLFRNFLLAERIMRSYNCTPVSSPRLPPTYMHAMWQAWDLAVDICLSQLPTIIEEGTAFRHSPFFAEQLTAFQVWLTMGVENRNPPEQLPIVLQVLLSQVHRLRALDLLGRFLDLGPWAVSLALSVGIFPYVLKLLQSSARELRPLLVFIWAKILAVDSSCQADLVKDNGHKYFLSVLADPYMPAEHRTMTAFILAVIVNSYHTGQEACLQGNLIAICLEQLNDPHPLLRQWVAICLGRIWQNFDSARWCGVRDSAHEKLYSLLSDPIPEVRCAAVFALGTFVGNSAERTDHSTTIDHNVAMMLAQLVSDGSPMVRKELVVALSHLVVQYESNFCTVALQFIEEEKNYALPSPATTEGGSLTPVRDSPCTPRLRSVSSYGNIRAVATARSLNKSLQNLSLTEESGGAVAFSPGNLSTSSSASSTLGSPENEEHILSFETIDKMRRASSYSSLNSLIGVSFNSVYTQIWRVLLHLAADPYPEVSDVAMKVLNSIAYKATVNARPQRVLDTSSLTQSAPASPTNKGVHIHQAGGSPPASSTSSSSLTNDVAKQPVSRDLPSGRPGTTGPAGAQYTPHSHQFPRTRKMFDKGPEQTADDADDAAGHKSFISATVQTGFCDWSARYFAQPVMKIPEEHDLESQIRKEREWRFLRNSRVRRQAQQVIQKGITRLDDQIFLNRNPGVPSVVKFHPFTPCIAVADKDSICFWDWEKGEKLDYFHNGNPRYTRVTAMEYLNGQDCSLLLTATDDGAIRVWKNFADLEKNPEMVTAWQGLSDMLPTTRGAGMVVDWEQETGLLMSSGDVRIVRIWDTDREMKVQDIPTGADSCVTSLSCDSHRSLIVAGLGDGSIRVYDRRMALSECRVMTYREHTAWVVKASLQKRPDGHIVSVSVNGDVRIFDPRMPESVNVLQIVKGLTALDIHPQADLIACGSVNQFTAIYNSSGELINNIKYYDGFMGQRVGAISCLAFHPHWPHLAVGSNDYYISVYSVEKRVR

B1: focal adhesion kinase (FAK) (enzyme, human, UniProt Q05397 2-1052, looked up)
chain: AAAYLDPNLNHTPNSSTKTHLGTGMERSPGAMERVLKVFHYFESNSEPTTWASIIRHGDATDVRGIIQKIVDSHKVKHVACYGFRLSHLRSEEVHWLHVDMGVSSVREKYELAHPPEEWKYELRIRYLPKGFLNQFTEDKPTLNFFYQQVKSDYMLEIADQVDQEIALKLGCLEIRRSYWEMRGNALEKKSNYEVLEKDVGLKRFFPKSLLDSVKAKTLRKLIQQTFRQFANLNREESILKFFEILSPVYRFDKECFKCALGSSWIISVELAIGPEEGISYLTDKGCNPTHLADFTQVQTIQYSNSEDKDRKGMLQLKIAGAPEPLTVTAPSLTIAENMADLIDGYCRLVNGTSQSFIIRPQKEGERALPSIPKLANSEKQGMRTHAVSVSETDDYAEIIDEEDTYTMPSTRDYEIQRERIELGRCIGEGQFGDVHQGIYMSPENPALAVAIKTCKNCTSDSVREKFLQEALTMRQFDHPHIVKLIGVITENPVWIIMELCTLGELRSFLQVRKYSLDLASLILYAYQLSTALAYLESKRFVHRDIAARNVLVSSNDCVKLGDFGLSRYMEDSTYYKASKGKLPIKWMAPESINFRRFTSASDVWMFGVCMWEILMHGVKPFQGVKNNDVIGRIENGERLPMPPNCPPTLYSLMTKCWAYDPSRRPRFTELKAQLSTILEEEKAQQEERMRMESRRQATVSWDSGGSDEAPPKPSRPGYPSPRSSEGFYPSPQHMVQTNHYQVSGYPGSHGITAMAGSIYPGQASLLDQTDSWNHRPQEIAMWQPNVEDSTVLDLRGIGQVLPTHLMEERLIRQQQEMEEDQRWLEKEERFLKPDVRLSRGSIDREDGSLQGPIGNQHIYQPVGKPDPAAPPKKPPRPGAPGHLGSLASLSSPADSYNEGVKLQPQEISPPPTANLDRSNDKVYENVTGLVKAVIEMSSKIQPAPPEEYVPMVKEVGLALRTLLATVDETIPLLPASTHREIEMAQKLLNSDLGELINKMKLAQQYVMTSLQQEYKKQMLTAAHALAVDAKNLLDVIDQARLKMLGQTRPH
notes: Endogenous protein of the human cancer cell lines HCT116 and MCF7; lysates of formaldehyde-fixed cells were used for immunoprecipitation; also called PTK2
- binding result: no binding
